± gives the standard error. For some of these results: Fewer inactive variants are shown than the library holds.
B1: glmS ribozyme (parent)
chain: AUAAAAGCGCCAGAACUACAGAAAUGUAGUUGACGAGGAGGAGGUUUAUCGAAUUUUCGGCGGAUGCCUCCAAA

What was measured:
Details in all cases: with glucosamine-6-phosphate
[1] = variants of: B1; assay: kcat; higher = faster cleavage; RNA array
Summary of the method: (§1)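 E. coli RNA polymerase transcribed barcoded ribozyme variants in situ on sequenced MiSeq chips, which were tracked via a hybridised Cy3 probe at 37 °C. Tiles were imaged over ~14 h after glucosamine-6-phosphate (40 μM to 10 mM) in HEPES/KCl/Mg(OAc)2 buffer was flowed in. Normalised per-tile medians were fit to one- or two-exponential decays for kobs, and kcat and KM came from weighted Michaelis–Menten fits.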

[2] = variants of: B1; assay: self-cleavage kobs at 40 uM GlcN6P; higher = faster cleavage; RNA array
Summary of the method: as §1

[3] = variants of: B1; assay: self-cleavage kobs at 2500 uM GlcN6P; higher = faster cleavage; RNA array
Summary of the method: as §1

[4] = variants of: B1; assay: self-cleavage kobs at 10000 uM GlcN6P; higher = faster cleavage; RNA array
Summary of the method: as §1

[5] = variants of: B1; assay: self-cleavage kobs at 160 uM GlcN6P; higher = faster cleavage; RNA array
Summary of the method: as §1

[6] = variants of: B1; assay: self-cleavage kobs at 640 uM GlcN6P; higher = faster cleavage; RNA array
Summary of the method: as §1

[7] = variants of: B1; assay: KM; higher = weaker cofactor use; RNA array
Summary of the method: as §1

## AUAAAAGCGCCAGAACUACAGAAAUGUAGUUGACGAGGAGGAGGUUUAUCGAAUUUUCGGCGGACGCCUCGAAA
[1]
  kcat: 4.3e-05 ± 1.5e-05 s⁻¹
[2]
  self-cleavage kobs at 40 uM GlcN6P: < 1e-05 s⁻¹
[3]
  self-cleavage kobs at 2500 uM GlcN6P: 8.15e-05 ± 1.6e-05 s⁻¹
[4]
  self-cleavage kobs at 10000 uM GlcN6P: 3.44e-05 ± 8.1e-06 s⁻¹

## AUAAAAGCGCCAGAACUACAGAAAUGUAGUUGACGAGGAGGAGGUUUAUCGAAUUUUCGGCGGAGGCCCCCAAA
[1]
  kcat: 0.00467 ± 0.0019 s⁻¹
[5]
  self-cleavage kobs at 160 uM GlcN6P: 0.000177 ± 4.5e-05 s⁻¹
[6]
  self-cleavage kobs at 640 uM GlcN6P: 0.000431 ± 8.3e-05 s⁻¹
[3]
  self-cleavage kobs at 2500 uM GlcN6P: 0.00108 ± 0.00019 s⁻¹
[4]
  self-cleavage kobs at 10000 uM GlcN6P: 0.00297 ± 0.0005 s⁻¹

## AUAAAAGCGCCAGAACUACAGAAAUGUAGUUGACGAGGAGGAGGUUUAUCGAAUUUUCGGCGGACGCCUGCAAA
[1]
  kcat: 1.37e-05 ± 3.9e-06 s⁻¹

## AUAAAAGCGCCAGAACUACAGAAAUGUAGUUGACGAGGAGGAGGUUUAUCGAAUUUUCGGCGGAGGCCUCUAAA
[1]
  kcat: 0.00415 ± 0.00046 s⁻¹
[7]
  KM: 2960 ± 430 µM
[2]
  self-cleavage kobs at 40 uM GlcN6P: 5.93e-05 ± 7e-06 s⁻¹
[5]
  self-cleavage kobs at 160 uM GlcN6P: 0.000189 ± 3.4e-05 s⁻¹
[6]
  self-cleavage kobs at 640 uM GlcN6P: 0.000688 ± 0.00013 s⁻¹
[3]
  self-cleavage kobs at 2500 uM GlcN6P: 0.00232 ± 0.00055 s⁻¹
[4]
  self-cleavage kobs at 10000 uM GlcN6P: 0.00316 ± 0.00037 s⁻¹

## AUAAAAGCGCCAGAACUACAGAAAUGUAGUUGACGAGGAGGAGGUUUAUCGAAUUUUCGGCGGAGGCCUCGAAA
[1]
  kcat: 0.001 ± 0.00022 s⁻¹
[7]
  KM: 3670 ± 1100 µM
[2]
  self-cleavage kobs at 40 uM GlcN6P: 2.64e-05 ± 9.6e-06 s⁻¹
[5]
  self-cleavage kobs at 160 uM GlcN6P: 4.2e-05 ± 1e-05 s⁻¹
[6]
  self-cleavage kobs at 640 uM GlcN6P: 0.000145 ± 1.5e-05 s⁻¹
[3]
  self-cleavage kobs at 2500 uM GlcN6P: 0.000413 ± 4.9e-05 s⁻¹
[4]
  self-cleavage kobs at 10000 uM GlcN6P: 0.000734 ± 0.00013 s⁻¹

## AUAAAAGCGCCAGAACUACAGAAAUGUAGUUGACGAGGAGGAGGUUUAUCGAAUUUUCGGCGGAGGCCUUCAAA
[1]
  kcat: 0.00416 ± 0.00036 s⁻¹
[7]
  KM: 2980 ± 340 µM
[2]
  self-cleavage kobs at 40 uM GlcN6P: 5.75e-05 ± 5e-06 s⁻¹
[5]
  self-cleavage kobs at 160 uM GlcN6P: 0.000203 ± 1.7e-05 s⁻¹
[6]
  self-cleavage kobs at 640 uM GlcN6P: 0.000728 ± 6e-05 s⁻¹
[3]
  self-cleavage kobs at 2500 uM GlcN6P: 0.00238 ± 0.00036 s⁻¹
[4]
  self-cleavage kobs at 10000 uM GlcN6P: 0.00315 ± 0.00024 s⁻¹

## AUAAAAGCGCCAGAACUACAGAAAUGUAGUUGACGAGGAGGAGGUUUAUCGAAUUUUCGGCGGAGGCCUGCAAA
[1]
  kcat: 0.000265 ± 5.4e-05 s⁻¹
[7]
  KM: 1470 ± 600 µM
[5]
  self-cleavage kobs at 160 uM GlcN6P: 4.76e-05 ± 7.4e-06 s⁻¹
[6]
  self-cleavage kobs at 640 uM GlcN6P: 7.04e-05 ± 6.8e-06 s⁻¹
[3]
  self-cleavage kobs at 2500 uM GlcN6P: 0.000176 ± 1.3e-05 s⁻¹
[4]
  self-cleavage kobs at 10000 uM GlcN6P: 0.000228 ± 2.3e-05 s⁻¹

## AUAAAAGCGCCAGAACUACAGAAAUGUAGUUGACGAGGAGGAGGUUUAUCGAAUUUUCGGCGGAGGUUUCCAAA
[1]
  kcat: 9.98e-05 ± 3.8e-05 s⁻¹
[3]
  self-cleavage kobs at 2500 uM GlcN6P: 5.84e-05 ± 1.3e-05 s⁻¹
[4]
  self-cleavage kobs at 10000 uM GlcN6P: 6.91e-05 ± 2.9e-05 s⁻¹

Source: the supplement of paper PMC7125110
